B1: OAS1 (parent)
chain: YIGTHEYPHFSHRPSTLQAASTPQ
B2: KRT33B (parent)
chain: YQSYFKTIEELQQKILCSKSENAR

Variants of: B1
Experiment: protein stability index of a GFP-peptide fusion (GPS, HEK-293T) (PSI 1-6); higher = more stable
Details: c terminus: a fixed tail appended
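Also: lentivirally expressed fusions sorted by FACS into six bins by GFP to DsRed ratio, PSI derived from sequencing read proportions per bin multiplied by bin number.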

Protein stability index: each site, then its substitutions
Y1: K 3.52 | R 3.84 | M 3.66 | E 4.08 | C 3.33 | A 4.01 | V 3.64 | T 4.07 | Q 4.21 | W 2.73 | I 3.58 | S 4 | H 3.64 | L 3.54 | G 4.34 | D 4.09 | N 4.04 | P 4.32 | F 1.49
T4: G 2.27 | E 2.55 | A 1.86 | C 2.12 | F 2.11 | D 2.56
G3: H 1.89 | Y 1.6 | S 2.03 | W 1.83 | D 1.75 | E 1.8 | I 2.6 | M 1.86 | L 2.19 | N 2.3 | Q 2.32 | P 2.28 | V 1.95 | F 2.35 | R 2.07 | K 2.48 | T 2.29 | A 2.11 | C 1.97
I2: M 2.92 | L 2.73 | Q 2.59 | N 3.29 | D 3.48 | H 1.44 | Y 3.27 | C 1.87 | A 2.29 | F 2.67 | K 3.47 | E 4.18 | P 2.47 | G 3.15 | V 2.61 | W 2.66 | T 2.17 | S 2.49 | R 3.68

Variants of: B2
Experiment: as above
Details: c terminus: a fixed tail appended

Protein stability index, by site and new letter:
R24: M 1.92 | N 2.02 | T 1.76 | W 1.15 | C 2.4 | L 2.15 | P 2.13 | Q 2.34 | G 2.55 | A 1.94 | K 1.84 | Y 1.3 | H 1.71 | S 2.07 | V 1.98 | F 1.47 | D 1.78 | I 1.79 | E 1.88
K19: P 2.14 | N 1.86 | Q 2.08 | W 1.57 | S 1.78 | V 1.7 | R 2.06 | T 2.3 | Y 1.84
A23: P 1.68 | Y 1.64 | V 2.35 | N 2.24 | T 2.27 | E 2.77 | F 1.47 | H 1.68 | I 1.9 | D 1.62 | K 1.76 | L 1.73 | R 2.13 | S 2.21 | G 2.03 | C 1.86 | Q 2.36 | M 2.11 | W 1.57
E21: M 2.13 | G 1.72 | A 1.86 | Y 1.75 | S 1.54 | P 1.8 | V 1.65 | R 1.77 | L 1.7 | Q 2.1 | D 1.77 | N 1.79 | T 1.77 | C 1.79 | W 1.28 | I 1.6 | H 1.79 | K 1.79 | F 2.06
S20: L 1.73 | T 1.87 | V 2.04 | M 1.63 | F 1.97 | I 1.92 | H 1.82 | G 1.38 | C 1.95 | Y 1.95 | E 1.65 | Q 1.81 | N 2.13 | P 1.99 | A 2.02 | W 1.56 | R 1.89 | D 2.32 | K 2.05
N22: E 1.89 | R 1.49 | Y 1.86 | T 1.39 | K 1.8 | W 1.9 | P 1.46 | H 2.18 | G 1.99 | S 2.5 | Q 2.19 | A 2.31 | C 2.3 | I 1.71 | F 1.67 | D 1.82 | M 1.93 | V 1.89 | L 1.86

From the supplement of paper PMC10567573
